{"source": "patent US20080300206A1", "target": "recombinant wild-type human alpha-synuclein (human) (UniProt P37840)", "experiment": "cell-based or functional assay", "data": [{"substance": "CDC7 cell division cycle 7-like 1 (CDC7L1) (from UniProt O00311 1-574) (enzyme)", "values": [{"measurement": "percentage of phospho-synuclein, ELISA, PEAK-Syn cells transfected with kinase cDNA", "result": 8.9, "unit": "%"}]}, {"substance": "G protein-coupled receptor kinase 6 (GRK6) (from UniProt P43250 1-576) (enzyme)", "values": [{"measurement": "fold increase of phospho-synuclein, HEK-synuclein cells", "result": 2, "unit": "fold"}, {"measurement": "percent phospho-synuclein, ELISA, cells transfected with GPRK6 cDNA", "result": 18.9, "unit": "%"}]}, {"substance": "Polo like kinase 2 (PLK2) (from UniProt Q9NYY3 1-685) (enzyme)", "values": [{"measurement": "fold increase of percent phospho-synuclein, cells transfected with PLK2 cDNA", "result": 4, "unit": "fold"}, {"measurement": "fold increase of phospho-synuclein over untransfected cells, ELISA, 293-synuclein cells", "result": 4.3, "unit": "fold"}, {"measurement": "percent phospho-synuclein, ELISA, cells transfected with PLK2 cDNA", "result": 33.2, "unit": "%"}]}, {"substance": "Aortic preferentially expressed gene 1 (APEG1) (from UniProt Q15772 1-3267) (enzyme)", "values": [{"measurement": "percentage of phospho-synuclein, ELISA, PEAK-Syn cells transfected with kinase cDNA", "result": 8.9, "unit": "%"}]}, {"substance": "Protein kinase, cGMP-dependent, regulatory, Type I (PRKG1) (from UniProt Q13976 2-671) (enzyme)", "values": [{"measurement": "percentage of phospho-synuclein, ELISA, PEAK-Syn cells transfected with kinase cDNA", "result": 8.9, "unit": "%"}]}]}
